Source: patent publication US7507555B2, “Probe for detecting and quantifying lipid second messenger and method of detecting and quantifying lipid second messenger using the same” (Japan Science and Technology Agency, priority 2003, dated 2009)

Assays:
[1] = system: PDGFR; assay: Effect of PTP1B overexpression on PDGF-stimulated PIP3 increase in CHO-PDGFR cells; format: cell-based, Chinese hamster; conditions: PTP1B overexpressed
Source text: For further dissecting the PIP3 dynamics in the endomembranes, protein tyrosine phosphatase-1B (PTP1B) was overexpressed in CHO-PDGFR cells by adenovirus-mediated gene transfer. The PTP1B is localized exclusively on the cytoplasmic surface of the ER (Frangioni, J. V., Beaham, P. H., Shifrin, V., Jost, C. A. and Neel, B. G. (1992) Cell, 68, 545-560). It has recently been reported that upon ligand stimulations, receptor tyrosine kinases, including PDGFR, are dephosphorylated and inactivated by the PTP1B on the cytoplasmic surface of the ER after the receptors activated at the cell surface were internalized by endocytosis (Haj, F. G., Verveer, P. J., Squire, A., Neel, B. G. and Bastiaens, P. I. H. (2002), Science, 295, 1708-1711).
The inventors expected the overexpressed PTP1B to selectively dephosphorylate the endocytosed PDGFR and to inhibit the recruitment and activation of PI3K by the PDGFR on the cytoplasmic surface of ER, without affecting the PDCFR in the plasma membrane.

[2] = system: clathrin-mediated endocytosis of PDGFR; assay: Effect of DynK44A expression on PIP3 increase in CHO-PDGFR cells; format: cell-based, Chinese hamster
Method: To explore the molecular mechanism, which underlies the PIP3 increase in the endomembranes, the effect on the PIP3 increase of a dominant-negative mutant of dynamin (DynK44A), in which the lysine 44 is substituted by an alanine, was assessed.
The dynamin is a guanosine triphosphatase (GTPase) that controls the clathrin-mediated endocytosis (Qualmann, B., Kessels, M. M. and Kelly, R. B. (2000) J. Cell Biol., 150, F111-F116) of receptor tyrosine kinases, including PDGFR. DynK44A lacks the GTPase activity and inhibits a clathrin-mediated endocytosis of PDGFR.
The DynK44A was expressed in CHO-PDCFR cells by adenovirus-mediated gene transfer, the cells were stimulated with PDGF (50 ng/mL) and time course of CFP/YFP in endomembranes was measured as shown in FIG. 11. […] On the other hand, in the plasma membrane, the FRET response of Fllip-pm was immediately observed upon PDGF stimulation even in the presence of the DynK44A expression, as observed in the absence of the DynK44A expression (FIG. 12).

B1: PTP1B: protein tyrosine phosphatase-1B, overexpressed by adenovirus-mediated gene transfer (protein, UniProt P18031 1-435, looked up)
Tyrosine-protein phosphatase …: MEMEKEFEQIDKSGSWAAIYQDIRHEASDFPCRVAKLPKNKNRNRYRDVSPFDHSRIKLHQEDNDYINASLIKMEEAQRSYILTQGPLPNTCGHFWEMVWEQKSRGVVMLNRVMEKGSLKCAQYWPQKEEKEMIFEDTNLKLTLISEDIKSYYTVRQLELENLTTQETREILHFHYTTWPDFGVPESPASFLNFLFKVRESGSLSPEHGPVVVHCSAGIGRSGTFCLADTCLLLMDKRKDPSSVDIKKVLLEMRKFRMGLIQTADQLRFSYLAVIEGAKFIMGDSSVQDQWKELSHEDLEPPPEHIPPPPRPPKRILEPHNGKCREFFPNHQWVKEETQEDKDCPIKEEKGSPLNAAPYGIESMSQDTEVRSRVVGGSLRGAQAASPAKGEPSLPEKDEDHALSYWKPFLVNMCVATVLTAGAYLCYRFLFNSNT
Q: What does the source list for B1?
A: PDGF-stimulated PIP3 increase in endomembranes ([1]; Fllip-em, PDGF 50 ng/mL): completely lost; PIP3 increase in the plasma membrane upon PDGF stimulation ([1]; monitored with Fllip-pm): not affected

B2: DynK44A: dominant-negative mutant of dynamin in which the lysine 44 is substituted by an alanine (protein, UniProt Q05193 1-864, looked up, variant K44A)
Dynamin-1: MGNRGMEDLIPLVNRLQDAFSAIGQNADLDLPQIAVVGGQSAGASSVLENFVGRDFLPRGSGIVTRRPLVLQLVNATTEYAEFLHCKGKKFTDFEEVRLEIEAETDRVTGTNKGISPVPINLRVYSPHVLNLTLVDLPGMTKVPVGDQPPDIEFQIRDMLMQFVTKENCLILAVSPANSDLANSDALKVAKEVDPQGQRTIGVITKLDLMDEGTDARDVLENKLLPLRRGYIGVVNRSQKDIDGKKDITAALAAERKFFLSHPSYRHLADRMGTPYLQKVLNQQLTNHIRDTLPGLRNKLQSQLLSIEKEVEEYKNFRPDDPARKTKALLQMVQQFAVDFEKRIEGSGDQIDTYELSGGARINRIFHERFPFELVKMEFDEKELRREISYAIKNIHGIRTGLFTPDMAFETIVKKQVKKIREPCLKCVDMVISELISTVRQCTKKLQQYPRLREEMERIVTTHIREREGRTKEQVMLLIDIELAYMNTNHEDFIGFANAQQRSNQMNKKKTSGNQDEILVIRKGWLTINNIGIMKGGSKEYWFVLTAENLSWYKDDEEKEKKYMLSVDNLKLRDVEKGFMSSKHIFALFNTEQRNVYKDYRQLELACETQEEVDSWKASFLRAGVYPERVGDKEKASETEENGSDSFMHSMDPQLERQVETIRNLVDSYMAIVNKTVRDLMPKTIMHLMINNTKEFIFSELLANLYSCGDQNTLMEESAEQAQRRDEMLRMYHALKEALSIIGDINTTTVSTPMPPPVDDSWLQVQSVPAGRRSPTSSPTPQRRAPAVPPARPGSRGPAPGPPPAGSALGGAPPVPSRPGASPDPFGPPPQVPSRPNRAPPGVPSRSGQASPSRPESPRPPFDL
Q: Which results are given for B2?
A: PIP3 increase in the endomembranes by insulin and epidermal growth factor ([2]; DynK44A overexpression): inhibited; PDGF-stimulated PIP3 increase in the endomembranes ([2]; overexpression of DynK44A, PDGF 50 ng/mL): completely inhibited; PDGF-stimulated PIP3 increase in the plasma membrane ([2]; overexpression of DynK44A, PDGF 50 ng/mL, Fllip-pm): not affected
